This is an account of results in article PMC4589357, “The Role of Electrostatic Interactions in Binding of Histone H3K4me2/3 to the Sgf29 Tandem Tudor Domain” (PLoS ONE, 2015).

Series [1] can be described thus: Differential scanning fluorimetry (DSF) melting temperature of Sgf29 and variants. The class given is physicochemical, Homo sapiens. Conditions: for Tm: SYPRO-Orange fluorescence, 25 mM TRIS pH 7.5, 50 mM NaCl, 1 mM DTT, 2.5 μl of 25 μM protein in 25 μl, 20–95°C, 1°C min^-1, ± SD, measured in triplicate. How it is done: Wild-type and variant Sgf29 reader domain proteins (Homo sapiens, residues 115–293) were expressed in terrific broth (TB) medium containing 50 μg ml^-1 kanamycin, using E. coli Rosetta BL21 DE3 PlysS as expression host. Bacteria were cultured to OD600 ≈ 0.6 at 37°C, 200 rpm after which the cultures were induced using 1 mM IPTG (final conc.). Cultures were then incubated at 16°C for 16 hours. Cells were harvested and lysed by sonication in 1x PBS, 250 mM NaCl, 5% glycerol, 0.2% CHAPS, 10mM β-mercaptoethanol. Lysate was centrifuged and the supernatant purified using Ni-NTA beads. The 6xHis tag was cleaved off overnight at 4°C using TEV-protease. Size exclusion chromatography, using a superdex 75 column, was employed as a final purification step with 25 mM TRIS pH 8.0, 50 mM NaCl, 1 mM DTT as eluent. Protein concentrations were determined by UV/Vis spectroscopy at 280 nm.
Sgf29 protein melt curves were obtained as described by Reinhard et. al. using a StepOne-Plus Real-Time PCR system (Applied Biosystems) and MicroAmp fast optical 96-well reaction plates (Applied Biosystems). SYPRO-Orange protein gel stain (Invitrogen) was used as a reporter dye, emitting fluorescence in the FAM channel. Total reaction volume was 25 μl; 20 μl buffer (25 mM TRIS pH 7.5, 50 mM NaCl, 1 mM DTT), 2.5 μl of 25 μM protein and 2.5 μl SYPRO-Orange dye (diluted 1:100 in ddH2O). Melt curve data were obtained in triplicate, in a temperature range of 20–95°C at a step-wise temperature increment of 1°C min^-1. Obtained data were analyzed using DSF Analysis v3.0.2 software, designed by Niesen et. al. (available via ftp://ftp.sgc.ox.ac.uk/pub/biophysics/).

Series [2] deals with T1, Wild-type Sgf29 (SAGA-associated Factor 29) tandem tudor domain, residues 115-293 (human, UniProt Q96ES7 115-293).
T1 construct: also called WT Sgf29; WT; source: E. coli Rosetta BL21 DE3 PlysS, purified (Ni-NTA, TEV cleavage, SEC Superdex 75)
T1 sequence (looked up): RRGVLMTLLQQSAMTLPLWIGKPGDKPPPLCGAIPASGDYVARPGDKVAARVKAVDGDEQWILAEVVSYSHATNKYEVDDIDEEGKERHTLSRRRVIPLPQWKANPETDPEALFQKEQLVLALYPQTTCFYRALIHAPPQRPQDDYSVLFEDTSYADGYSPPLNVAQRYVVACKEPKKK
The experiment in a line: ITC; peptide (generally 1.2 mM) titrated to protein (100 uM); for variants of low affinity 2.4 mM peptide to 200 uM protein; 25 mM TRIS pH 8.0, 50 mM NaCl, 1 mM DTT; one-site model. Conditions: both partners purified. On the technique in general: ITC needs no label: the signal is the heat of the interaction.

Non-standard residues stand in square brackets, D forms with d. Primed or numbered codes have the meaning given here. No end group written: not given here. Lys(Me3) = C[N+](C)(C)CCCC[C@H](N)C(=O)O; Me3″ = trimethyl-lysine

B1: WT: Wild-type Sgf29 reader domain protein (Homo sapiens, residues 115–293) (protein)
chain: RRGVLMTLLQQSAMTLPLWIGKPGDKPPPLCGAIPASGDYVARPGDKVAARVKAVDGDEQWILAEVVSYSHATNKYEVDDIDEEGKERHTLSRRRVIPLPQWKANPETDPEALFQKEQLVLALYPQTTCFYRALIHAPPQRPQDDYSVLFEDTSYADGYSPPLNVAQRYVVACKEPKKK
modifications: left off: 6xHis, end not stated, cleaved
For B1, the melting temperature (Tm) (in general, the temperature at which the thermal transition is half complete) in series [1] came to 57.8 ± 0.1 °C; in series [1] (listed as WT Sgf29), 57.8 °C.

B2: D266N: Sgf29 variant, D266 substituted by asparagine (protein)
chain: RRGVLMTLLQQSAMTLPLWIGKPGDKPPPLCGAIPASGDYVARPGDKVAARVKAVDGDEQWILAEVVSYSHATNKYEVDDIDEEGKERHTLSRRRVIPLPQWKANPETDPEALFQKEQLVLALYPQTTCFYRALIHAPPQRPQDDYSVLFENTSYADGYSPPLNVAQRYVVACKEPKKK
modifications: left off: 6xHis, end not stated, cleaved
notes: Sgf29 variant, D266 substituted by asparagine
For the molecule B2, in series [1], the Tm turned out to be 56.4 ± 0.1 °C.

B3: D266F: Sgf29 variant, D266 substituted by phenylalanine (protein)
chain: RRGVLMTLLQQSAMTLPLWIGKPGDKPPPLCGAIPASGDYVARPGDKVAARVKAVDGDEQWILAEVVSYSHATNKYEVDDIDEEGKERHTLSRRRVIPLPQWKANPETDPEALFQKEQLVLALYPQTTCFYRALIHAPPQRPQDDYSVLFEFTSYADGYSPPLNVAQRYVVACKEPKKK
modifications: left off: 6xHis, end not stated, cleaved
notes: Sgf29 variant, D266 substituted by phenylalanine
With B3, in series [1], the Tm worked out at 53.9 ± 0.5 °C and the “decrease in Tm relative to WT Sgf29” value was found to be 3.3 °C.

B4: D266W: Sgf29 variant, D266 substituted by tryptophan (protein)
chain: RRGVLMTLLQQSAMTLPLWIGKPGDKPPPLCGAIPASGDYVARPGDKVAARVKAVDGDEQWILAEVVSYSHATNKYEVDDIDEEGKERHTLSRRRVIPLPQWKANPETDPEALFQKEQLVLALYPQTTCFYRALIHAPPQRPQDDYSVLFEWTSYADGYSPPLNVAQRYVVACKEPKKK
modifications: left off: 6xHis, end not stated, cleaved
notes: Sgf29 variant, D266 substituted by tryptophan
For the molecule B4, in series [1], the melting temperature (Tm) was 55.5 ± 0.1 °C and the “decrease in Tm relative to WT Sgf29” value was determined as 2.3 °C.

B5: D266A: Sgf29 variant, D266 substituted by alanine (protein)
chain: RRGVLMTLLQQSAMTLPLWIGKPGDKPPPLCGAIPASGDYVARPGDKVAARVKAVDGDEQWILAEVVSYSHATNKYEVDDIDEEGKERHTLSRRRVIPLPQWKANPETDPEALFQKEQLVLALYPQTTCFYRALIHAPPQRPQDDYSVLFEATSYADGYSPPLNVAQRYVVACKEPKKK
modifications: left off: 6xHis, end not stated, cleaved
notes: Sgf29 variant, D266 substituted by alanine
In the case of B5, the melting temperature (Tm) in series [1] is 55.8 ± 0.3 °C.

B6: D266E: Sgf29 variant, substitution of D266 by glutamic acid (protein)
chain: RRGVLMTLLQQSAMTLPLWIGKPGDKPPPLCGAIPASGDYVARPGDKVAARVKAVDGDEQWILAEVVSYSHATNKYEVDDIDEEGKERHTLSRRRVIPLPQWKANPETDPEALFQKEQLVLALYPQTTCFYRALIHAPPQRPQDDYSVLFEETSYADGYSPPLNVAQRYVVACKEPKKK
modifications: left off: 6xHis, end not stated, cleaved
notes: Sgf29 variant, substitution of D266 by glutamic acid
As to B6, the Tm in series [1] came out at 57.7 ± 0.1 °C.

B7: D266Y: Sgf29 variant, D266 substituted by tyrosine (protein)
chain: RRGVLMTLLQQSAMTLPLWIGKPGDKPPPLCGAIPASGDYVARPGDKVAARVKAVDGDEQWILAEVVSYSHATNKYEVDDIDEEGKERHTLSRRRVIPLPQWKANPETDPEALFQKEQLVLALYPQTTCFYRALIHAPPQRPQDDYSVLFEYTSYADGYSPPLNVAQRYVVACKEPKKK
modifications: left off: 6xHis, end not stated, cleaved
notes: Sgf29 variant, D266 substituted by tyrosine
For the molecule B7, in series [1], the Tm amounted to 54.5 ± 0.2 °C and the “decrease in Tm relative to WT Sgf29” value came out at 3.9 °C.

B8: Y238F: Sgf29 variant, Y238 substituted by phenylalanine (protein)
chain: RRGVLMTLLQQSAMTLPLWIGKPGDKPPPLCGAIPASGDYVARPGDKVAARVKAVDGDEQWILAEVVSYSHATNKYEVDDIDEEGKERHTLSRRRVIPLPQWKANPETDPEALFQKEQLVLALFPQTTCFYRALIHAPPQRPQDDYSVLFEDTSYADGYSPPLNVAQRYVVACKEPKKK
modifications: left off: 6xHis, end not stated, cleaved
notes: Sgf29 variant, Y238 substituted by phenylalanine
On to B8, for which the midpoint of thermal melting (Tm) in series [1] amounted to 56.5 ± 0.2 °C.

B9: Y245F: Sgf29 variant, Y245 substitution (Y245F) (protein)
chain: RRGVLMTLLQQSAMTLPLWIGKPGDKPPPLCGAIPASGDYVARPGDKVAARVKAVDGDEQWILAEVVSYSHATNKYEVDDIDEEGKERHTLSRRRVIPLPQWKANPETDPEALFQKEQLVLALYPQTTCFFRALIHAPPQRPQDDYSVLFEDTSYADGYSPPLNVAQRYVVACKEPKKK
modifications: left off: 6xHis, end not stated, cleaved
With B9, the Tm in series [1] stood at 56.4 ± 0.1 °C.

B10: 10-mer H3K4me3 peptide that contains G instead of R at position 8 (ARTKme3QTAGKS) (peptide)
peptide: ART[Lys(Me3)]QTAGKS
notes: The synthesis is described only for the two native 10-mer peptides
As for B10, in series [2], the equilibrium dissociation constant (Kd) (commonly a measure of binding affinity in units of concentration) came out at 4 ± 0.6 µM and the dH is -8 ± 0.1 kcal/mol.

B11: 7-mer H3K4me3 peptide ARTKme3QTA (peptide)
peptide: ARTK(Me3″)QTA
notes: histone H3 N-terminal tail, 7-mer, K4 trimethylated, lacks the last three residues of the 10-mer; The synthesis is described only for the two native 10-mer peptides; also called 7-mer peptide
In series [2], B11 came in with an equilibrium dissociation constant (Kd) of 9 ± 0.5 µM and a dH of -7.8 ± 0.1 kcal/mol.
